Reference: PMC11069190

Key:
Assay in all cases: EMSA
[1] = biological target: Cbf1 (Saccharomyces cerevisiae) (UniProt P17106); conditions: apparent Kd on reconstituted nucleosome; 10.7 mM HEPES-KOH pH 7.9, 4 mM Tris-Cl, 80.9 mM NaCl, 19.1 mM KCl, 5.4 mM MgCl2, 0.2 mM Mg acetate, 0.05% NP-40, 10% glycerol, 0.2 uM ZnCl2, 0.2 mM EDTA, 0.4 mM
[2] = biological target: T1, Abf1 (Saccharomyces cerevisiae) (UniProt P14164); conditions: apparent Kd on reconstituted nucleosome; 10.7 mM HEPES-KOH pH 7.9, 4 mM Tris-Cl, 80.9 mM NaCl, 19.1 mM KCl, 5.4 mM MgCl2, 0.2 mM Mg acetate, 0.05% NP-40, 10% glycerol, 0.2 uM ZnCl2, 0.2 mM EDTA, 0.4 mM
T1 sequence: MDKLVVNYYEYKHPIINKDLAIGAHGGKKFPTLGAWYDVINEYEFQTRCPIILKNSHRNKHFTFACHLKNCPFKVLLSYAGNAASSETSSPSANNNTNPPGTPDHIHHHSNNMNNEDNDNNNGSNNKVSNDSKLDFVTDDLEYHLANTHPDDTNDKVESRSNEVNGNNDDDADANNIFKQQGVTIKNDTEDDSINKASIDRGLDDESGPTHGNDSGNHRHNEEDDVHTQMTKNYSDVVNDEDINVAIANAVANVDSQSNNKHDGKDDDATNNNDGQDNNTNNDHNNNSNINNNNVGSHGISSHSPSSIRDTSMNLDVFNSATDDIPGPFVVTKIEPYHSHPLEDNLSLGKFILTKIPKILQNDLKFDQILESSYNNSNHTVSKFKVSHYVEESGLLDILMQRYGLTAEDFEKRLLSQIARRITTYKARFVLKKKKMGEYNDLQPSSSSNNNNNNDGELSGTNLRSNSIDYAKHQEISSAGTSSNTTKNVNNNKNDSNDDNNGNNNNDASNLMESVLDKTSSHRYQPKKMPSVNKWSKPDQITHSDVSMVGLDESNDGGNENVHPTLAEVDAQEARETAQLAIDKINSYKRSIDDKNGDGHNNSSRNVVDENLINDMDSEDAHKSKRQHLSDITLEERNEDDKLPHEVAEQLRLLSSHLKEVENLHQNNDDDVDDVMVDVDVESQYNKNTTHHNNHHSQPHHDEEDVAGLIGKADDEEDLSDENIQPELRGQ

[3] = biological target: T2, Reb1 (Saccharomyces cerevisiae) (UniProt P21538); conditions: apparent Kd on reconstituted nucleosome; 10.7 mM HEPES-KOH pH 7.9, 4 mM Tris-Cl, 80.9 mM NaCl, 19.1 mM KCl, 5.4 mM MgCl2, 0.2 mM Mg acetate, 0.05% NP-40, 10% glycerol, 0.2 uM ZnCl2, 0.2 mM EDTA, 0.4 mM
T2 sequence: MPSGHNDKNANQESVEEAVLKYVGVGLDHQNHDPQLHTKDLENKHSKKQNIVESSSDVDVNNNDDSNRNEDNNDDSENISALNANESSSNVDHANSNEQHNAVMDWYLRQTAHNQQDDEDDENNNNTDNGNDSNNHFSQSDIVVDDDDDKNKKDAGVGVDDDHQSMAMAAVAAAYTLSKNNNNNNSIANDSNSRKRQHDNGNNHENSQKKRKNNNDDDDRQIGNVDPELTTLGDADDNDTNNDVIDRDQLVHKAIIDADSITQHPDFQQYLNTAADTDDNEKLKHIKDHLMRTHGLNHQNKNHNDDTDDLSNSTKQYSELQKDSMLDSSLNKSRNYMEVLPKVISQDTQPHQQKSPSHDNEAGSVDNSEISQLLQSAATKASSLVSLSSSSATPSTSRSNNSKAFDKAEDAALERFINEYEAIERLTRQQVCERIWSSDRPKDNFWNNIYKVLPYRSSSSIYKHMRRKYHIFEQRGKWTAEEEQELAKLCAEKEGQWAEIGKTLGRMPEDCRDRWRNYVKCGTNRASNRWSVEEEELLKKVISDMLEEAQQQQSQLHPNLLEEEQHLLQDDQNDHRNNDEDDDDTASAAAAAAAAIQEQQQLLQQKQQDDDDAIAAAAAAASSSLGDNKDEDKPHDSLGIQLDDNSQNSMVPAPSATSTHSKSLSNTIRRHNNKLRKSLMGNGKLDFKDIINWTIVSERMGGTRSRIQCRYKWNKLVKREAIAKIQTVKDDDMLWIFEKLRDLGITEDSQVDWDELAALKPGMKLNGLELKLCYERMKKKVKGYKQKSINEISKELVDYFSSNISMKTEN

[4] = biological target: T3, Rap1 (Saccharomyces cerevisiae) (UniProt P11938); conditions: 10.7 mM HEPES-KOH pH 7.9, 4 mM Tris-Cl, 80.9 mM NaCl, 19.1 mM KCl, 5.4 mM MgCl2, 0.2 mM Mg acetate, 0.05% NP-40, 10% glycerol, 0.2 uM ZnCl2, 0.2 mM EDTA, 0.4 mM
T3 sequence: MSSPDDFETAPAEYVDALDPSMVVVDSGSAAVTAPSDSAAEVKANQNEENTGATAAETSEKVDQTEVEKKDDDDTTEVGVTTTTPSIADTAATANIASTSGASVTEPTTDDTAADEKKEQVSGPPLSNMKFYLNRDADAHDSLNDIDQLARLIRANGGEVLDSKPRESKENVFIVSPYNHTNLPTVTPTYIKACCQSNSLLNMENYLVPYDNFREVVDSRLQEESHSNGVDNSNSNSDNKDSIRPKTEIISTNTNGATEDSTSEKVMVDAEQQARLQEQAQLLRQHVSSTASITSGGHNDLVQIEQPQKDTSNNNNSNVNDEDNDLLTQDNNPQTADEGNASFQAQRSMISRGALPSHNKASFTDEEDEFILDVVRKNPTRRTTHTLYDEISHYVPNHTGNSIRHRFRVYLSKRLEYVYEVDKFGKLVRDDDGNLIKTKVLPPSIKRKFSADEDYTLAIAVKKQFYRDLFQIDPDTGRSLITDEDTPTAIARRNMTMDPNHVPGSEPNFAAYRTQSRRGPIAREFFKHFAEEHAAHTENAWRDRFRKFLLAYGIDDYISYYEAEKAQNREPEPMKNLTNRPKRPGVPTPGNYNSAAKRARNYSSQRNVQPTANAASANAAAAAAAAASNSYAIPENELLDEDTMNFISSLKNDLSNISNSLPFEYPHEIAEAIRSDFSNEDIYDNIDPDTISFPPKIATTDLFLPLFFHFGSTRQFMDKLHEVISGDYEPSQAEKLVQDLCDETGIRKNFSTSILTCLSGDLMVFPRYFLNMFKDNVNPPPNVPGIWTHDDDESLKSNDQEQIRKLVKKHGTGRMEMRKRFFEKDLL

UniProt P17106, sequence (P17106 whole entry): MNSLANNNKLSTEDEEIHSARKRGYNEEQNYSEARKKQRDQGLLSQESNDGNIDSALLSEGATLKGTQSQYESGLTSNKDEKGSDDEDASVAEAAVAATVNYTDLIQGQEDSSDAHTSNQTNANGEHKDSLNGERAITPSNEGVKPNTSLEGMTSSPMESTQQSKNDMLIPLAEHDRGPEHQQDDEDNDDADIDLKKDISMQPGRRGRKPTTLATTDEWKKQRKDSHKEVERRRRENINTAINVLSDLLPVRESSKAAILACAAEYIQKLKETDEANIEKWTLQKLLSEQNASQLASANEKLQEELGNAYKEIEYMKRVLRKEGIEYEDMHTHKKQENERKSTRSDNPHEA

GGTCGCTGTTCAATACATGCACAGGATGTATATATCTGACACGTGCCTGGAGACTAGGGAGTAATCCCCTTGGCGGTTAAAACGCGGGGGACAGCGCGTACGTGCGTTTAAGCGGTGCTAGAGCTGTCTACGACCAATTGAGCGGCCTCGGCACCGGGATTCTCCAGGGCGGCCGCTGTCACGTGGGCTAGTAATGGTGATGACCGCGGACCTGCAGGCATGCAAGC (double strand) [20-NC-60Cbf1bs nucleosome]
Kd [1]: 7.8 nM

GGTCGCTGTTCAATACATGCACAGGATGTATATATCTGACACGTGCCTGGAGACTAGGGAGTAATCCCCTTGGCGGTTAAAACGCGGGGGACAGCGCGTACGTGCGTTTAAGCGGTGCTAGAGCTGTCTACGACCAATTGAGCGGCCTCGGCACCGGGATTCTCCAGGGCGGCCGCTTATCGTATTGCATGATATGGTGATGACCGCGGACCTGCAGGCATGCAAGC (double strand) [20-NC-60Abf1bs nucleosome]
Kd [2]: 1 nM

GGTCGCTGTTCAATACATGCACAGGATGTATATATCTGACACGTGCCTGGAGACTAGGGAGTAATCCCCTTGGCGGTTAAAACGCGGGGGACAGCGCGTACGTGCGTTTAAGCGGTGCTAGAGCTGTCTACGACCAATTGAGCGGCCTCGGCACCGGGATTCTCCAGGGCGGCCGCTCGGGTAAAGCATCACCATGGTGATGACCGCGGACCTGCAGGCATGCAAGC (double strand) [20-NC-60Reb1bs nucleosome]
Kd [3]: 4.9 nM

GGTCGCTGTTCAATACATGCACAGGATGTATATATCTGACACGTGCCTGGAGACTAGGGAGTAATCCCCTTGGCGGTTAAAACGCGGGGGACAGCGCGTACGTGCGTTTAAGCGGTGCTAGAGCTGTCTACGACCAATTGAGCGGCCTCGGCACCGGGATTCTCCAGGGCGGCCGCTACACCCATACATTTCCATGGTGATGACCGCGGACCTGCAGGCATGCAAGC (double strand) [20-NC-60Rap1bs nucleosome]
Kd [4]: 0.8 nM
